# What was measured:
# [1] = Standard enzyme activity measurement toward PPO, crude enzyme (per volume fermentation broth); assay type: biochemical; conditions: toward PPO; for Enzyme activity of mutants (U/mL): crude enzyme, standard system, N.D. = no detectable activity
# Method: The preserved recombinant E. coli is streaked onto the plate for activation. Single colonies are picked and inoculated into 5 mL LB liquid medium containing 50 μg/mL kanamycin and cultured at 37° C. for 12 h. The culture is transferred to 50 mL fresh LB liquid medium containing 50 μg/mL kanamycin at a 2% inoculum, and then incubated at 37° C. until the OD600 reaches 0.6; after that, add IPTG to a final concentration of 0.5 mM, and then proceed with induction culture under the temperature of 18° C. for 16 h.
# After the cultivation, the culture is centrifuged at 10000 rpm for 10 min; discard supernatant, and collect cells. The harvested cells are washed for 2 times using pH 7.5 50 mM phosphate buffer. After that, the cells are re-suspend into the pH 7.5 phosphate buffer and disrupted ultrasonically (400W for 30 times, Ultrasonic time is 3 s, and the interval is 7 s). The cell disrupted solution is centrifuged at 12000 g for 5 min at 4° C. to remove the precipitate, and the supernatant obtained is the crude enzyme containing recombinant glutamate dehydrogenase
# The standard enzyme activity measurement system: Appropriate amount of enzyme, 100 mM substrate, 10 mM coenzyme (NADH or NADPH), 500 mM NH4^+ ((NH4)2SO4); total system volume is up to 400 μL; reaction medium is pH 7.5 phosphate buffer. 35° C. reaction for 10 min; after that, add 40 uL 5 M NaOH to terminate reaction.
# Definition of enzyme activity unit: The quantity of enzyme as required by generation of 1 μmol L-phosphinothricin per minute under standard reaction conditions.
# Proceed with induction culture of constructed mutants, and prepare crude enzyme solution.
# [2] = Preparation of L-phosphinothricin by coupling glutamate dehydrogenase with glucose dehydrogenase; assay type: biochemical; conditions: 500 mM PPO, NAD+, GluDH cells 1.25 g/L
# Method: The reaction process is monitored by measuring the concentration of substrate in the reaction solution applying high-performance liquid chromatography (HPLC). HPLC analysis method is stated as follows: column model: Pntulips® QS-C18, 5 μm, 4.6 mm×250 mm. Mobile phase: 50 mM (NH4)2HPO4, added 1% of 10% tetrabutyl ammonium hydroxide, adjusted to pH 3.6 with 50% phosphoric acid(mass fraction), added 8% acetonitrile. Detective wave length is 205 nm; flow rate is 1.0 mL/min. Column temperature is 40° C.
# The enantiomeric excess and concentration of product are determined through pre-column derivatization high-performance liquid chromatography; the specific analysis method is stated as follows:
# (1) HPLC condition: column model: Pntulips® QS-C18, 5 μm, 4.6 mm×250 mm. Mobile phase: 50 mM Sodium acetate: Acetonitrile=8: 0.5 (v/v). Detective wave length: 338 nm. Flow rate: 0.85 mL/min. Column temperature: 30° C.
# (2) Derivatization reagent: Weigh 0.03 g phthalaldehyde and 0.1 g N-acetyl-L-cysteine, and use 400 uL ethanol for solubilization; after that, add 4 mL 0.2 mol/L borate buffer (pH 9.8) and shake for dissolution prior to storage in the fridge under the temperature of 4° C. (no more than 4 days).
# (3) Derivatization reaction and analysis: Add 150 μL derivatization reagent into 100 μL sample, mix and incubate at 25° C. for 5 min, and then inject 20 μL for analysis.
# Culture recombinant E. coli expressing glutamate dehydrogenase (PpGluDH) and glucose dehydrogenase (BsGDH-2M, SEQ ID NO. 21) with method in Step 3 of Embodiment 1; proceed with centrifugal collection of cells and ultrasonic cell disruption to prepare crude enzyme solution.
# (§1) The final volume of the reaction is 30 mL; each sample contains 500 mM substrate PPO, 600 mM glucose, 250 mM (NH4)2SO4 and 0.5 mM NADP^+. Concentration of glutamate dehydrogenase cells (dry weight) is 1.0 g/L; concentration of glucose dehydrogenase cells (dry weight) is 1.25 g/L. Use water bath to control the reaction temperature at 35° C.; titrate ammonia to control pH at 7.5 during the reaction process. Use non-chiral HPLC to determine residual concentration of PPO after reaction for 6 h; meanwhile, use pre-column derivatization HPLC to determine the concentration and ee value of formed L-phosphinothricin.
# as §1, with “0.5” for “1.0”
# as §1, with “NAD^+.” for “NADP^+.”, “1.25” for “1.0”
# The final volume of the reaction is 30 mL; each sample contains 500 mM substrate PPO, 600 mM glucose, 250 mM (NH4)2SO4 and 0.5 mM NAD^+. Concentration of glutamate dehydrogenase cells (dry weight) is 1.25 g/L; concentration of glucose dehydrogenase cells (dry weight) is 1.25 g/L. Use water bath to control the reaction temperature at 35° C.; titrate ammonia to control pH at 7.5 during the reaction process. […]
molecule,measurement,setting,value
"PeGluDH-A164G: PeGluDH mutant A164G, SEQ ID NO. 5 (protein, Pseudomonas entomophila glutamate dehydrogenase mutant) MIESVDHFLARLQQRDPAQPEFHQAVEEVLRSLWPFLEQNPHYLEAGILERMVEPERAVLFRVSWVDDQGKVQVNRGYRIQMSSAIGPYKGGLRFHPSVNLGVLKFLAFEQVFKNSLTSLPMGGGKGGSDFDPKGKSDAEVMRFCQAFMSELYRHIGADLDVPGGDIGVGAREIGFLFGQYKRLANQFTSVLTGKGMTYGGSLIRPEATGYGCVYFAEEMLKRQEQRIDGRRVAISGSGNVAQYAARKVMDLGGKVISLSDSEGTLFCEAGLTDEQWDALMELKNVKRGRISELAGRFGLEFRKGQTPWSLACDIALPCATQNELNADDARTLLRNGCICVAEGANMPTTLDAVDIFIEAGILYAPGKASNAGGVAVSGLEMSQNAMRLLWTAGEVDSKLHHIMQSIHHVCVHYGEEADGRINYVKGANIAGFVKVADAMLAQGVV",Fold change,[1]; enzyme activity of mutant versus wild type,110
same,Enzyme activity of mutants (U/mL),[1],11.29 U/mL
"BtGluDH-A155G: BtGluDH mutant A155G, SEQ ID NO. 19 (protein, Brevibacillus thermoruber glutamate dehydrogenase mutant) MVTENTQGKEQKQESMNLLQSTQTVIKEALEKLGYQESMYELLKEPLRVLTVRIPVRMDNGEVKVFTGYRAQHNDAVGPTKGGIRFHPDVTEDEVKALSIWMSLKAGIVDLPYGGGKGGIICDPREMSFRELERLSRGYVRAVSQIVGPTKDIPGPDVFTNSQIMAWMMDEYSRIREFDSPGFITGKPIALGGSHGRETATAKGVTICIREAAKRRGIDLKGARVVVQGFGNAGSYLSKFMHDAGAKVVGISDAYGALYDPNGLDIDYLLDRRDSFGTVTKLFTNTITNKELLELDCDILVPAAIENQITAANAHNIKAKIVVEAANGPTTLEATKILTERGILLVPDVLASAGGVTVSYFEWVQNNQGYYWSEEEVQEKLEKVMVKAFENVYSLAQTRRVDMRLAAYMVGVRKMAEASRFRGWV",concentration of formed L-phosphinothricin,"[2]; 50° C., pH 7.5, 6 h",80.3 g/L
same,residual PPO,"[2]; 50° C., pH 7.5, 6 h",1.4 mM
same,substrate conversion,"[2]; 50° C., pH 7.5, 6 h",99.7%
same,Enzyme activity of mutants (U/mL),[1],0.50 U/mL
"CsGluDH-A164G: CsGluDH mutant A164G, SEQ ID NO. 17 (protein, Clostridium symbiosum glutamate dehydrogenase mutant) MSKYVDRVIAEVEKKYADEPEFVQTVEEVLSSLGPVVDAHPEYEEVALLERMVIPERVIEFRVPWEDDNGKVHVNTGYRVQFNGAIGPYKGGLRFAPSVNLSIMKFLGFEQAFKDSLTTLPMGGAKGGSDFDPNGKSDREVMRFCQAFMTELYRHIGPDIDVPGGDLGVGAREIGYMYGQYRKIVGGFYNGVLTGKARSFGGSLVRPEATGYGSVYYVEAVMKHENDTLVGKTVALAGFGNVAWGAAKKLAELGAKAVTLSGPDGYIYDPEGITTEEKINYMLEMRASGRNKVQDYADKFGVQFFPGEKPWGQKVDIIMPCATQNDVDLEQAKKIVANNIKYYIEVANMPTTNEALRFLMQQPNMVVAPSKAVNAGGVLVSGFEMSQNSERLSWTAEEVDSKLHQVMTDIHDGSAAAAERYGLGYNLVAGANIVGFQKIADAMMAQGIAW",concentration of formed L-phosphinothricin,"[2]; 35° C., pH 7.5, 6 h",79.6 g/L
same,residual PPO,"[2]; 35° C., pH 7.5, 6 h",0 mM
same,substrate conversion,"[2]; 35° C., pH 7.5, 6 h",100%
same,Enzyme activity of mutants (U/mL),[1],2.61 U/mL
"CsGluDH-V378A: CsGluDH mutant V378A, SEQ ID NO. 18 (protein, Clostridium symbiosum glutamate dehydrogenase mutant) MSKYVDRVIAEVEKKYADEPEFVQTVEEVLSSLGPVVDAHPEYEEVALLERMVIPERVIEFRVPWEDDNGKVHVNTGYRVQFNGAIGPYKGGLRFAPSVNLSIMKFLGFEQAFKDSLTTLPMGGAKGGSDFDPNGKSDREVMRFCQAFMTELYRHIGPDIDVPAGDLGVGAREIGYMYGQYRKIVGGFYNGVLTGKARSFGGSLVRPEATGYGSVYYVEAVMKHENDTLVGKTVALAGFGNVAWGAAKKLAELGAKAVTLSGPDGYIYDPEGITTEEKINYMLEMRASGRNKVQDYADKFGVQFFPGEKPWGQKVDIIMPCATQNDVDLEQAKKIVANNIKYYIEVANMPTTNEALRFLMQQPNMVVAPSKAVNAGGALVSGFEMSQNSERLSWTAEEVDSKLHQVMTDIHDGSAAAAERYGLGYNLVAGANIVGFQKIADAMMAQGIAW",concentration of formed L-phosphinothricin,"[2]; 35° C., pH 7.5, 12 h",78.5 g/L
same,residual PPO,"[2]; 35° C., pH 7.5, 12 h",1.8 mM
same,substrate conversion,"[2]; 35° C., pH 7.5, 12 h",99.6%
same,Enzyme activity of mutants (U/mL),[1],1.76 U/mL

# Reference: US10865391B2, “Glutamate dehydrogenase mutants and their application in preparation of L-phosphinothricin” (ZHEJIANG UNIVERSITY, priority 2018, dated 2020)
